What was measured:
[1] = molecular target: RyR2-S2814D (CaMKII phosphomimetic), knock-in mouse (mouse (endogenous in ventricular myocytes)) (UniProt E9Q401); test: FRET or BRET
[2] = molecular target: RyR2-S2814A (non-phosphorylatable), knock-in mouse (mouse (endogenous in ventricular myocytes)) (UniProt E9Q401); test: FRET or BRET

| Substance | Kd [1] | Kd [2] | fold faster binding (wash-in) vs. S2814A myocytes [1] |
| --- | --- | --- | --- |
| fluorescent calmodulin (F-CaM) (from UniProt P0DP23 1-149) (natural protein) | 72 nM | 20 nM |  |
| fluorescent DPc10 peptide (F-DPc10; RyR2 residues 2460-2495) (from UniProt P30957 2460-2495) |  |  | 2 fold |

Reference: paper PMC5026590
